Sequences and labels used below:
T1: TSEN54, subunit of full-length, catalytically inactive human TSEN (human, UniProt Q7Z6J9 1-526)
T1 sequence (looked up): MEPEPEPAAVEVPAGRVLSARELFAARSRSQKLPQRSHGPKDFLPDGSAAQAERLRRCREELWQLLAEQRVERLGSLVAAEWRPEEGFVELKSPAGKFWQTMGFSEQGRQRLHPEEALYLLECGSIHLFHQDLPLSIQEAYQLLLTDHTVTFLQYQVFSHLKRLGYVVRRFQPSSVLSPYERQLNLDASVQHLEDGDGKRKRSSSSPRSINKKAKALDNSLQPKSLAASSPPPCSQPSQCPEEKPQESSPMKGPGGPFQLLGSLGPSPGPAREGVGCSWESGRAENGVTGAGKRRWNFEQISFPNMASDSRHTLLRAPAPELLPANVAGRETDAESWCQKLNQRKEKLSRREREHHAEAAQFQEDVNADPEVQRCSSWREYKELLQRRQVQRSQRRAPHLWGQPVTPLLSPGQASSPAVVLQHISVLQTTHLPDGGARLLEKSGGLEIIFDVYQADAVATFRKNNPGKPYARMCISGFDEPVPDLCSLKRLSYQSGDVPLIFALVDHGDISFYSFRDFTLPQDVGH

B1: TSEN15, subunit of full-length, catalytically inactive human TSEN (natural protein, UniProt Q8WW01 1-171, looked up)
chain: MEERGDSEPTPGCSGLGPGGVRGFGDGGGAPSWAPEDAWMGTHPKYLEMMELDIGDATQVYVAFLVYLDLMESKSWHEVNCVGLPELQLICLVGTEIEGEGLQTVVPTPITASLSHNRIREILKASRKLQGDPDLPMSFTLAIVESDSTIVYYKLTDGFMLPDPQNISLRR
B2: TSEN34^H255F, subunit of full-length, catalytically inactive human TSEN (natural protein, UniProt Q9BSV6 1-310, looked up)
chain: MLVVEVANGRSLVWGAEAVQALRERLGVGGRTVGALPRGPRQNSRLGLPLLLMPEEARLLAEIGAVTLVSAPRPDSRHHSLALTSFKRQQEESFQEQSALAAEARETRRQELLEKITEGQAAKKQKLEQASGASSSQEAGSSQAAKEDETSDGQASGEQEEAGPSSSQAGPSNGVAPLPRSALLVQLATARPRPVKARPLDWRVQSKDWPHAGRPAHELRYSIYRDLWERGFFLSAAGKFGGDFLVYPGDPLRFFAHYIAQCWAPEDTIPLQDLVAAGRLGTSVRKTLLLCSPQPDGKVVYTSLQWASLQ
B3: TSEN2^H377F, subunit of full-length, catalytically inactive human TSEN (natural protein, UniProt Q8NCE0 1-465, looked up)
chain: MAEAVFHAPKRKRRVYETYESPLPIPFGQDHGPLKEFKIFRAEMINNNVIVRNAEDIEQLYGKGYFGKGILSRSRPSFTISDPKLVAKWKDMKTNMPIITSKRYQHSVEWAAELMRRQGQDESTVRRILKDYTKPLEHPPVKRNEEAQVHDKLNSGMVSNMEGTAGGERPSVVNGDSGKSGGVGDPREPLGCLQEGSGCHPTTESFEKSVREDASPLPHVCCCKQDALILQRGLHHEDGSQHIGLLHPGDRGPDHEYVLVEEAECAMSEREAAPNEELVQRNRLICRRNPYRIFEYLQLSLEEAFFLVYALGCLSIYYEKEPLTIVKLWKAFTVVQPTFRTTYMAYHYFRSKGWVPKVGLKYGTDLLLYRKGPPFYFASYSVIIELVDDHFEGSLRRPLSWKSLAALSRVSVNVSKELMLCYLIKPSTMTDKEMESPECMKRIKVQEVILSRWVSSRERSDQDDL

For experiment [1], the target named is B2. As to the kind of experiment: cryo-EM structure.
The target of experiment [2] is T1, TSEN54, subunit of full-length, …. The experiment can be described thus: cryo-EM structure.

With B1, the binding result in experiment [1] is recorded as “binds”. Regarding B2, the binding result in experiment [2] is reported as “binds”. Same read-out and setting: under B3 stands “binds”.

Values taken from publication doi:10.1101/2022.09.03.506465 (bioRxiv, 2022).
